Source: patent US12472269B2, “Liver-specific inducible promoters and methods of use thereof” (ASKBIO INC., priority 2019, dated 2025)

B1: PB1-3-SV40: promoter: 4 mouse PBREM elements with SV40 minimal promoter, SEQ ID NO: 15 (nucleic acid)
DNA: TCTGTACTTTCCTGACCTTGGCACAGTGCCACCATCAACTTGCCTGACACCCATTACTCGCATCCATTCTCTCTGTACTTTCCTGACCTTGGCACAGTGCCACCATCAACTTGCCTGACACCGCACTGAAGGTCCTCAATCGTCTGTACTTTCCTGACCTTGGCACAGTGCCACCATCAACTTGCCTGACACCCTGACCTCCTGCCAGCAATATCTGTACTTTCCTGACCTTGGCACAGTGCCACCATCAACTTGCCTGACACCGCTGGGAGTTCGTAGACGGACTAGCCCGGGCTCGAGATCTGCGATCTGCATCTCAATTAGTCAGCAACCATAGTCCCGCCCCTAACTCCGCCCATCCCGCCCCTAACTCCGCCCAGTTCCGCCCATTCTCCGCCCCATCGCTGACTAATTTTTTTTATTTATGCAGAGGCCGAGGCCGCCTCGGCCTCTGAGCTATTCCAGAAGTAGTGAGGAGGCTTTTTTGGAGGCCTAGGCTTTTGCAAAAAGCTTGGCATTCCGGTACTGTTGGTAAAGCCACCC
modifications: PB1-3-SV40
B2: PB1-2-CMV: promoter: 3 mouse PBREM elements with CMV minimal promoter, SEQ ID NO: 17 (nucleic acid)
DNA: TCTGTACTTTCCTGACCTTGGCACAGTGCCACCATCAACTTGCCTGACACCCATTACTCGCATCCATTCTCTCTGTACTTTCCTGACCTTGGCACAGTGCCACCATCAACTTGCCTGACACCGCACTGAAGGTCCTCAATCGTCTGTACTTTCCTGACCTTGGCACAGTGCCACCATCAACTTGCCTGACACCGCTGGGAGTTCGTAGACGGAGCGATTAATCCATATGCAGGTCTATATAAGCAGAGCTCGTTTAGTGAACCGTCAGATCGCCTAGATACGCCATCCACGCTGTTTTGACCTCCATAGAAGATCGCCACCC
modifications: PB1-2-CMV
B3: PB1-3-MinTK: promoter: 4 mouse PBREM elements with MinTK minimal promoter, SEQ ID NO: 12 (nucleic acid)
DNA: TCTGTACTTTCCTGACCTTGGCACAGTGCCACCATCAACTTGCCTGACACCCATTACTCGCATCCATTCTCTCTGTACTTTCCTGACCTTGGCACAGTGCCACCATCAACTTGCCTGACACCGCACTGAAGGTCCTCAATCGTCTGTACTTTCCTGACCTTGGCACAGTGCCACCATCAACTTGCCTGACACCCTGACCTCCTGCCAGCAATATCTGTACTTTCCTGACCTTGGCACAGTGCCACCATCAACTTGCCTGACACCGCTGGGAGTTCGTAGACGGAGATCCGGCCCCGCCCAGCGTCTTGTCATTGGCGAATTCGAACACGCAGATGCAGTCGGGGCGGCGCGGTCCGAGGTCCACTTCGCATATTAAGGTGACGCGTGTGGCCTCGAACACCGAGCGACCCTGCAGCGACCCGCTTAACAGCGTCAACAGCGTGCCGCAGATCTCGAGGAGCTTGGCGAGATTTTCAGGAGCTAAGGAAGCTAAAC
modifications: PB1-3-MinTk
B4: PB1-1-SV40: promoter: 2 mouse PBREM elements with SV40 minimal promoter, SEQ ID NO: 13 (nucleic acid)
DNA: TCTGTACTTTCCTGACCTTGGCACAGTGCCACCATCAACTTGCCTGACACCCATTACTCGCATCCATTCTCTCTGTACTTTCCTGACCTTGGCACAGTGCCACCATCAACTTGCCTGACACCGCTGGGAGTTCGTAGACGGACTAGCCCGGGCTCGAGATCTGCGATCTGCATCTCAATTAGTCAGCAACCATAGTCCCGCCCCTAACTCCGCCCATCCCGCCCCTAACTCCGCCCAGTTCCGCCCATTCTCCGCCCCATCGCTGACTAATTTTTTTTATTTATGCAGAGGCCGAGGCCGCCTCGGCCTCTGAGCTATTCCAGAAGTAGTGAGGAGGCTTTTTTGGAGGCCTAGGCTTTTGCAAAAAGCTTGGCATTCCGGTACTGTTGGTAAAGCCACCC
modifications: PB1-1-SV40
B5: PB1-1-CMV: promoter: 2 mouse PBREM elements with CMV minimal promoter, SEQ ID NO: 16 (nucleic acid)
DNA: TCTGTACTTTCCTGACCTTGGCACAGTGCCACCATCAACTTGCCTGACACCCATTACTCGCATCCATTCTCTCTGTACTTTCCTGACCTTGGCACAGTGCCACCATCAACTTGCCTGACACCGCTGGGAGTTCGTAGACGGAGCGATTAATCCATATGCAGGTCTATATAAGCAGAGCTCGTTTAGTGAACCGTCAGATCGCCTAGATACGCCATCCACGCTGTTTTGACCTCCATAGAAGATCGCCACCC
modifications: PB1-1-CMV
B6: PB1-1-MinTK: promoter: 2 mouse PBREM elements with MinTK minimal promoter, SEQ ID NO: 10 (nucleic acid)
DNA: TCTGTACTTTCCTGACCTTGGCACAGTGCCACCATCAACTTGCCTGACACCCATTACTCGCATCCATTCTCTCTGTACTTTCCTGACCTTGGCACAGTGCCACCATCAACTTGCCTGACACCGCTGGGAGTTCGTAGACGGAGATCCGGCCCCGCCCAGCGTCTTGTCATTGGCGAATTCGAACACGCAGATGCAGTCGGGGCGGCGCGGTCCGAGGTCCACTTCGCATATTAAGGTGACGCGTGTGGCCTCGAACACCGAGCGACCCTGCAGCGACCCGCTTAACAGCGTCAACAGCGTGCCGCAGATCTCGAGGAGCTTGGCGAGATTTTCAGGAGCTAAGGAAGCTAAAC
modifications: PB1-1-MinTk (2xPBREM)
B7: PB1-2-SV40: promoter: 3 mouse PBREM elements with SV40 minimal promoter, SEQ ID NO: 14 (nucleic acid)
DNA: TCTGTACTTTCCTGACCTTGGCACAGTGCCACCATCAACTTGCCTGACACCCATTACTCGCATCCATTCTCTCTGTACTTTCCTGACCTTGGCACAGTGCCACCATCAACTTGCCTGACACCGCACTGAAGGTCCTCAATCGTCTGTACTTTCCTGACCTTGGCACAGTGCCACCATCAACTTGCCTGACACCGCTGGGAGTTCGTAGACGGACTAGCCCGGGCTCGAGATCTGCGATCTGCATCTCAATTAGTCAGCAACCATAGTCCCGCCCCTAACTCCGCCCATCCCGCCCCTAACTCCGCCCAGTTCCGCCCATTCTCCGCCCCATCGCTGACTAATTTTTTTTATTTATGCAGAGGCCGAGGCCGCCTCGGCCTCTGAGCTATTCCAGAAGTAGTGAGGAGGCTTTTTTGGAGGCCTAGGCTTTTGCAAAAAGCTTGGCATTCCGGTACTGTTGGTAAAGCCACCC
modifications: PB1-2-SV40
B8: PB1-SV40-MP: promoter: 1 mouse PBREM element with SV40 minimal promoter, SEQ ID NO: 9 (nucleic acid)
DNA: TCTGTACTTTCCTGACCTTGGCACAGTGCCACCATCAACTTGCCTGACACCGCTGGGAGTTCGTAGACGGACTAGCCCGGGCTCGAGATCTGCGATCTGCATCTCAATTAGTCAGCAACCATAGTCCCGCCCCTAACTCCGCCCATCCCGCCCCTAACTCCGCCCAGTTCCGCCCATTCTCCGCCCCATCGCTGACTAATTTTTTTTATTTATGCAGAGGCCGAGGCCGCCTCGGCCTCTGAGCTATTCCAGAAGTAGTGAGGAGGCTTTTTTGGAGGCCTAGGCTTTTGCAAAAAGCTTGGCATTCCGGTACTGTTGGTAAAGCCACCC
modifications: PB1-SV40-MP
B9: PB1-CMV-MP: promoter: 1 mouse PBREM element with CMV minimal promoter, SEQ ID NO: 8 (nucleic acid)
DNA: TCTGTACTTTCCTGACCTTGGCACAGTGCCACCATCAACTTGCCTGACACCGCTGGGAGTTCGTAGACGGAGCGATTAATCCATATGCAGGTCTATATAAGCAGAGCTCGTTTAGTGAACCGTCAGATCGCCTAGATACGCCATCCACGCTGTTTTGACCTCCATAGAAGATCGCCACCC
modifications: PB1-CMV-MP
B10: PB1-3-CMV: promoter: 4 mouse PBREM elements with CMV minimal promoter, SEQ ID NO: 18 (nucleic acid)
DNA: TCTGTACTTTCCTGACCTTGGCACAGTGCCACCATCAACTTGCCTGACACCCATTACTCGCATCCATTCTCTCTGTACTTTCCTGACCTTGGCACAGTGCCACCATCAACTTGCCTGACACCGCACTGAAGGTCCTCAATCGTCTGTACTTTCCTGACCTTGGCACAGTGCCACCATCAACTTGCCTGACACCCTGACCTCCTGCCAGCAATATCTGTACTTTCCTGACCTTGGCACAGTGCCACCATCAACTTGCCTGACACCGCTGGGAGTTCGTAGACGGAGCGATTAATCCATATGCAGGTCTATATAAGCAGAGCTCGTTTAGTGAACCGTCAGATCGCCTAGATACGCCATCCACGCTGTTTTGACCTCCATAGAAGATCGCCACCC
modifications: PB1-3-CMV

System: AXOL ARE-hepatocytes
Experiment: Luciferase expression from PBREM promoters in AXOL ARE-hepatocytes, induction by CITCO
Type: cell-based, human
Settings: for induced luciferase expression as a ratio to CMV-IE: induction with CITCO, mean of 3 biological replicates
Excerpt: Axol Assay-Ready Expanded (ARE) Hepatocytes are primary human hepatocytes that have been expanded in vitro. Large batch sizes (up to 2000 vials) are available, ensuring a reliable, ready-to-use and consistent source of primary hepatocytes. ARE Hepatocytes express CYP enzymes, are metabolically functional, are polarized and can be infected by the Hepatitis C virus. AXOL ARE-hepatocytes express CAR negating the need to transfect with a CAR-expressing plasmid.
• AXOL assay-ready expanded (ARE) hepatocytes (Axol, ax3701) • ARE hepatocyte thawing medium (Axol, ax3705) • ARE maintenance medium (Axol, ax3710) • Virimer red transfection reagent (Lipocalyx, VR04-02-15) • CITCO, lucifierase, β-galactosidase and BCA kits as described above
ARE hepatocytes were cultured and transfected as described in the manufacturer's manual. 200,000 cells were seeded in 2 ml culture medium in collagen-coated 6 well plate. The cells were incubated for 4 h at 37° C. and 5% CO2 for sufficient adhesion. 200 μl of transfection mixture containing the DNA to be transfected (PB1-MinTK/PB1-CMV/PB1-SV40 operably linked with luciferase and β-galactosidase containing promoter) was added and the cells were incubated on an orbital shaker at 100 rpm for three hours at 37° C. and 5% CO2. 3 hrs after transfection CITCO was added to the appropriate wells. Cells were incubated under static conditions at 37° C. and 5% CO2 overnight and in the morning the medium was replaced with fresh ARE Hepatocyte Maintenance Medium. Readout was 24 hrs after induction. […]

[1] = single PBREM element, minimal promoters compared

Molecule	induced luciferase expression as a ratio to CMV-IE	other results
B1	2.57	–
B2	2.67	–
B3	2.66	–
B4	2.6	–
B5	1.9	–
B6	1.5	–
B7	3.6	–
B8	–	expression level compared to CMV-IE (1 μM CITCO): 55%; induction of luciferase expression (1 μM CITCO, readout 24 hrs after induction): around 7 fold; background level [1]: higher background level; expression driven [1]: highest expression
B9	–	expression level compared to CMV-IE (1 μM CITCO): 10%; expression driven [1]: little to no expression
B10	2.67	–
